Data on one molecule can be found in PMC6277223 (Neoplasia (New York, N.Y.), 2018).

The target of this assay is His-SIRT6 (UniProt Q8N6T7 1-355). The experiment in a line: pull-down.
Sequence of His-SIRT6 (Q8N6T7 whole entry): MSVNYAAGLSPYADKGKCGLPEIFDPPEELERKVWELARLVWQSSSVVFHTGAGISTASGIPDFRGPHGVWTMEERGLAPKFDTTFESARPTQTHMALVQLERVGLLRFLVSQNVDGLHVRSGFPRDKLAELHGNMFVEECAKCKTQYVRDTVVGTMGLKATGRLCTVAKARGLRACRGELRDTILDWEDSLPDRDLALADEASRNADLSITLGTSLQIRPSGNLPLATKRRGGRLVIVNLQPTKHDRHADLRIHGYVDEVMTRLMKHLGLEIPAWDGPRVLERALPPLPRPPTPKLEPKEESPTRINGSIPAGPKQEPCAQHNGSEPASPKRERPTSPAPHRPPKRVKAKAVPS

B1: GST-PKCζ N-terminus (1-251 aa) (domain or fragment, UniProt Q05513 1-251, looked up)
chain: MPSRTGPKMEGSGGRVRLKAHYGGDIFITSVDAATTFEELCEEVRDMCRLHQQHPLTLKWVDSEGDPCTVSSQMELEEAFRLARQCRDEGLIIHVFPSTPEQPGLPCPGEDKSIYRRGARRWRKLYRANGHLFQAKRFNRRAYCGQCSERIWGLARQGYRCINCKLLVHKRCHGLVPLTCRKHMDSVMPSQEPPVDDKNEDADLPSEETDGIAYISSSRKHDSIKDDSEDLKPVIDGMDGIKISQGLGLQD
As to B1, the binding result was “binds”.
